16 molecules from patent publication US20240116985A1, “STAPLED PEPTIDES AND METHODS THEREOF” (priority 2020, published 2024) can be followed below.

Usually EC50 stands for the concentration needed to bring the measured effect to its halfway point. As usually defined, the IC50 is the concentration needed to halve the response being measured.

Starred links: 1 amine or outer side, 2 acyl side, 3 side chain; linkers in the order of their positions; H or OH if unused. Positions of bridges follow the written chain, without caps; N, C: chain ends. Non-standard residues stand in square brackets, D forms with d. Primed or numbered codes have the meaning given here. PyrS2(3) = (S)-3-amino-1-((pent-4-en-1-yloxy)carbonyl)pyrrolidine-3-carboxylic acid, stapling residue, C=CCCCOC(=O)N1CC[C@@](N[*:1])(C(=O)[*:2])C1; PyrS2″ = (S)-3-amino-1-((pent-4-en-1-yloxy)carbonyl)pyrrolidine-3-carboxylic acid (stapling residue), C=CCCCOC(=O)N1CC[C@@](N[*:1])(C(=O)[*:2])C1; B5(4) = 2,2-bis(4-pentenyl)glycine = 2-amino-2-(pent-4-en-1-yl)hept-6-enoic acid (stitching residue), C=CCCCC(CCCC=C)(N[*:1])C(=O)[*:2]; B5(5) = 2,2-bis(4-pentenyl)glycine, 2-amino-2-(pent-4-en-1-yl)hept-6-enoic acid (stitching residue), C=CCCCC(CCCC=C)(N[*:1])C(=O)[*:2]; B5(3) = 2,2-bis(4-pentenyl)glycine (stitching residue), C=CCCCC(CCCC=C)(N[*:1])C(=O)[*:2]; B5″ = 2,2-bis(4-pentenyl)glycine, stitching residue, C=CCCCC(CCCC=C)(N[*:1])C(=O)[*:2]; Phe(2-Cl) = N[C@@H](Cc1ccccc1Cl)C(=O)O; Bta = N[C@@H](Cc1csc2ccccc12)C(=O)O; αAllylPro = C=CC[C@@]1(C(=O)O)CCCN1; tBuAla = CC(C)(C)C[C@H](N)C(=O)O; 3Thi = N[C@@H](Cc1ccsc1)C(=O)O; S8 = C=CCCCCCC[C@](C)(N)C(=O)O; hSer = N[C@@H](CCO)C(=O)O

One experiment addresses full-length beta-Catenin (Uniprot ID P35222) (Homo sapiens (Human)) (UniProt P35222). Put plainly: FP competition: displacement of 5FAM-TCF4(10-53) from full-length beta-catenin.
Target sequence in this assay (P35222 whole entry): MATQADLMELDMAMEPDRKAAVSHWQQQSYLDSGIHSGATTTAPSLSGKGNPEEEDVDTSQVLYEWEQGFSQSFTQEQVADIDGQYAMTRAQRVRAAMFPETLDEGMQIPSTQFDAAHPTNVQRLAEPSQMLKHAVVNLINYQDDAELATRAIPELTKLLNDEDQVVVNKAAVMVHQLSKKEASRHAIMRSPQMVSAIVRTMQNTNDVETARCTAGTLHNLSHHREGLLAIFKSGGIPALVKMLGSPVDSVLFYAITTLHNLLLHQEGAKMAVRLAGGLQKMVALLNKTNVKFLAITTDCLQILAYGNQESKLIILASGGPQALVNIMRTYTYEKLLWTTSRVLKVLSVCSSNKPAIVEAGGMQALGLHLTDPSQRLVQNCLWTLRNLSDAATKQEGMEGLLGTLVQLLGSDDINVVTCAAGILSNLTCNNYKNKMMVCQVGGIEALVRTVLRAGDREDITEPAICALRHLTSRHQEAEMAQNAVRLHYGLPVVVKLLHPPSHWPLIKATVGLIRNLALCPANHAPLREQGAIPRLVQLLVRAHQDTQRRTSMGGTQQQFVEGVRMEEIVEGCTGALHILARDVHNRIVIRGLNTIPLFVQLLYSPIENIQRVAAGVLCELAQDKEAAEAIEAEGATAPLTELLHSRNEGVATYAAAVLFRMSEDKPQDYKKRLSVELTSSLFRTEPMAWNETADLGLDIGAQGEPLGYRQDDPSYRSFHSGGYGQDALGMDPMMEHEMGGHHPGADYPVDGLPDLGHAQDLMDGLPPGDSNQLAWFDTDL
In turn, Ac-[αAllylPro]D[tBuAla][B5″]NDAAFL[PyrS2(3)][3Thi][Bta]Q-NH2 (staple 1-4, 4-11) [I-1207] displayed a concentration for a half-maximal effect (EC50) of 40 nM. With Ac-[αAllylPro]D[tBuAla][B5(5)]SDAAFN[PyrS2″][3Thi][Bta]Q-NH2 (staple 1-4, 4-11) [I-1208], the EC50 worked out at 349 nM. Turning to Ac-[αAllylPro]D[tBuAla][B5″]NDAAFN[PyrS2(3)][3Thi][Bta]Q-NH2 (staple 1-4, 4-11) [I-1206], the concentration for a half-maximal effect (EC50) was 32 nM. In turn, Ac-[αAllylPro]Q[tBuAla][B5(5)]DDAAFN[PyrS2″][3Thi][Bta]Q-NH2 (staple 1-4, 4-11) [I-1224] returned an EC50 of 389 nM. Same read-out and setting: to Ac-[αAllylPro]D[tBuAla][B5(5)]LDAAFN[PyrS2″][3Thi][Bta]Q-NH2 (staple 1-4, 4-11) [I-1212] belongs 8660 nM; to Ac-[αAllylPro]D[tBuAla][B5(5)]SDAAFL[PyrS2″][3Thi][Bta]Q-NH2 (staple 1-4, 4-11) [I-1209], 479 nM; to Ac-[αAllylPro]S[tBuAla][B5(5)]DDAAFN[PyrS2″][3Thi][Bta]Q-NH2 (staple 1-4, 4-11) [I-1222], 511 nM. On to Ac-[αAllylPro]L[tBuAla][B5(5)]DDAAFN[PyrS2″][3Thi][Bta]Q-NH2 (staple 1-4, 4-11) [I-1226], for which the EC50 worked out at 559 nM. Molecule Ac-[αAllylPro]Q[tBuAla][B5(5)]DDAAFL[PyrS2″][3Thi][Bta]Q-NH2 (staple 1-4, 4-11) [I-1225] displayed an EC50 of 305 nM. Consider Ac-[αAllylPro]N[tBuAla][B5(4)]DDAAFL[PyrS2″][3Thi][Bta]Q-NH2 (staple 1-4, 4-11) [I-1221], for which the half-maximal effective concentration (EC50) came to 14 nM. With Ac-[αAllylPro]D[tBuAla][B5(5)][hSer]DAAFN[PyrS2″][3Thi][Bta]Q-NH2 (staple 1-4, 4-11) [I-1214], the concentration for a half-maximal effect (EC50) came out at 116 nM. The molecule Ac-[αAllylPro]D[tBuAla][B5(5)][hSer]DAAFL[PyrS2″][3Thi][Bta]Q-NH2 (staple 1-4, 4-11) [I-1215] yielded a concentration for a half-maximal effect (EC50) of 216 nM. Same read-out and setting: to Ac-[αAllylPro]D[tBuAla][B5(5)]QDAAFN[PyrS2″][3Thi][Bta]Q-NH2 (staple 1-4, 4-11) [I-1210] belongs 56 nM; to Ac-[αAllylPro]S[tBuAla][B5(5)]DDAAFL[PyrS2″][3Thi][Bta]Q-NH2 (staple 1-4, 4-11) [I-1223], 550 nM. The molecule Ac-[αAllylPro]D[tBuAla][B5(5)]QDAAFL[PyrS2″][3Thi][Bta]Q-NH2 (staple 1-4, 4-11) [I-1211] returned an EC50 of 115 nM.

A further experiment has the same target. Put plainly: fluorescence polarization competition; full-length beta-catenin, 5FAM-TCF4(10-53) probe as competitor. Background: Polarisation of emitted light reports the rotation of a fluorescent probe.
Target sequence in this assay (P35222 2-781 limits assumed): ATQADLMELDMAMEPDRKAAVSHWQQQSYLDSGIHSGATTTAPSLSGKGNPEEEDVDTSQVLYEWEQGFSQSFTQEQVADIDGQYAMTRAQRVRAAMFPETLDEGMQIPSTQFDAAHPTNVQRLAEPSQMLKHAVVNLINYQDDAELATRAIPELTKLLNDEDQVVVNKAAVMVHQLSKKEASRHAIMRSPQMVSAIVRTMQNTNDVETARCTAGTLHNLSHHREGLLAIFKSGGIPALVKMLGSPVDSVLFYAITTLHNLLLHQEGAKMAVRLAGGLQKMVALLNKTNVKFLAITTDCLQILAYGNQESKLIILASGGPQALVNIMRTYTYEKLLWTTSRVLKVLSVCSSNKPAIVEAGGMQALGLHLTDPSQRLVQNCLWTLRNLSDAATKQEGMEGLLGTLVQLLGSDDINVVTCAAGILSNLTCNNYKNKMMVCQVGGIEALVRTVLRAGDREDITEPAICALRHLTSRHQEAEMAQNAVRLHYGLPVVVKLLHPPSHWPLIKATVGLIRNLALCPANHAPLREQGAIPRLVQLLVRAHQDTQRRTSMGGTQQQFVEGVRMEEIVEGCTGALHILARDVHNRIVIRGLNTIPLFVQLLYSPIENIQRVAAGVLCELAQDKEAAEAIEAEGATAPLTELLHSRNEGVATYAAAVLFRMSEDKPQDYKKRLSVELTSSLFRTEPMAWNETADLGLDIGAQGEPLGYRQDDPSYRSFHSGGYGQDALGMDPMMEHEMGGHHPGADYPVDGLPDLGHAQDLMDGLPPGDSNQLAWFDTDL
Ac-[αAllylPro]L[tBuAla][B5(5)]DDAAFN[PyrS2″][3Thi][Bta]Q-NH2 (staple 1-4, 4-11) [I-1226]: the half-inhibitory concentration (IC50) stood at 559 nM.

The target is the same in a further experiment. Nature of the experiment: fluorescence polarization competition; full-length beta-catenin + 5FAM-TCF4(10-53) probe as competitor.
Target sequence in this assay (P35222 2-781 limits assumed): as above
Regarding Ac-[αAllylPro]D[tBuAla][B5(3)]DDAAFT[S8][Phe(2-Cl)][Bta][dT]-NH2 (staple 1-4, 4-11) [I-1092], the concentration for a half-maximal effect (EC50) was found to be 26 nM.

Another experiment has the same target. Put plainly: fluorescence polarization competition; peptide titrated against 10 nM full-length beta-catenin + 10 nM 5FAM-TCF4(10-53).
Target sequence in this assay (P35222 2-781 limits assumed): as above
Regarding Ac-[αAllylPro]D[tBuAla][B5(3)]DDAAFT[S8][Phe(2-Cl)][Bta][dT]-NH2 (staple 1-4, 4-11) [I-1092], the IC50 came out at 26 nM.
